This passage reports Kd results from publication PMC9568614 (2022).

Test [1] has as its target T1, recombinant human FcRn (FcRn alpha-chain with C-terminal BirA 10x-Histidine tag, with beta-2-microglobulin) (human, UniProt P55899 24-297; P61769 21-119). Briefly: SPR; pH 6.0.
The target of test [2] is T1, recombinant human FcRn (FcRn …). Briefly: SPR; pH 7.4.

B1: Fc-MST-HN (IgG1 Fc fragment with M252Y, S254T, T256E, H433K, N434F) (domain or fragment)
chain: DKTHTCPPCPAPELLGGPSVFLFPPKPKDTLYITREPEVTCVVVDVSHEDPEVKFNWYVDGVEVHNAKTKPREEQYNSTYRVVSVLTVLHQDWLNGKEYKCKVSNKALPAPIEKTISKAKGQPREPQVYTLPPSRDELTKNQVSLTCLVKGFYPSDIAVEWESNGQPENNYKTTPPVLDSDGSFFLYSKLTVDKSRWQQGNVFSCSVMHEALKFHYTQKSLSLSP
Regarding B1, the Kd in test [1] was 33 nM; in test [2] it was 1220 nM.
